US9623039B2, “Treatment and prevention of pathological conditions using iduna related techniques and compositions” (VALTED, LLC, priority 2010, dated 2017)

What was measured:
primary neurons = test: H2O2-induced cell death in primary neurons; format: cell-based, mouse; settings: 100 μM H2O2
Experimental: FIGS. 44 and 45—Iduna protects against peroxide-induced cell death in primary neurons. Primary neuronal cultures were transduced with lentiviruses expressing GFP, GFP-Iduna or GFP-Iduna-YRAA. 4 days following lentiviral transduction, cultures were treated with H2O2 (100 μM or 500 μM) and cell death assessed 24 h later using PI and Hoechst staining.
Cell Death Assessment: Following exposure of neuronal cultures to the various treatments neuronal survival was quantified and presented as percent of cell death. Percent cell death was determined as the ratio of live-to-dead cells compared with the percent cell death in control wells to account for cell death attributable to mechanical stimulation of the cultures. Quantification of neuronal survival was determined by staining treated cultures with 5 μM Hoechst 33342 and 2 μM propidium iodide (PI) (Invitrogen, Carlsbad, Calif.). Culture plates were placed on a mechanized stage of a Zeiss microscope and photomicrographs were collected by a blinded observer. The numbers of total and dead (PI positive) cells were counted by automated computer assisted software (Axiovision 4.6, Zeiss, Germany). The raw counts are presented in an Excel file for generation of percent cell death and statistical analysis. Glial nuclei fluoresce at a lower intensity than neuronal nuclei and were gated out by the software program. […]

MCF7 cells = test: Cell cycle analysis after γ-irradiation; format: cell-based, human; settings: γ-irradiation 2 Gy
Experimental: Cell cycle analysis. Studies were performed to evaluate the cell cycle response of each stable cell lines. Cells were plated onto 150 mm culture dishes and cultured for 24 h at 37° C. with fresh growth medium. Following replacement of growth medium, cells were irradiated at 2 Gy with a Gammacell irradiator. After 12 h, cells were washed once with PBS and incubated with PBS containing 0.2% EDTA for 5 min at 37° C., thereafter scraped with fresh growth medium and collected at 500×g at 4° C. Collected cells were washed once with ice cold PBS and then fixed with 70% ethanol. Cells were washed once with PBS containing 1% FBS and resuspended into propidium iodide (PI) staining buffer (PBS, pH 7.4, 50 μg/ml PI, 1% FBS, 100 μg/ml RNase) for 30 min at 37° C. Cells were monitored for DNA content by a flow cytometry (BD Biosciences) and then data were analyzed with FlowJo using Dean-Jett-Fox model for the quantification of each cell cycle phase.

[1] = Intrastriatal NMDA lesion in Iduna transgenic mice; format: in vivo, mouse; settings: Iduna transgenic mice vs littermate wild type, intrastriatal NMDA 20 nmoles
Text: To determine whether Iduna is protective in vivo, transgenic mice overexpressing Iduna were generated by knocking in Iduna into the ROSA26 genomic locus resulting in a four-fold expression over wild type littermate mice (FIGS. 58-60). NMDA induced lesions are reduced by approximately 80% in the Iduna transgenic mice compared to littermate wild type control animals following an intrastriatal injection of NMDA (20 nmoles) (FIGS. 61 and 62).
Transgenic Mice: ES cells were targeted and screened as described in Soriano et al. Briefly, the pROSA26PA-iduna plasmid was linearized with KpnI and electroporated into ES cells derived from mouse strain 129SvEv. Twelve of 277 G418-resistant colonies had undergone correct homologous recombination, as determined by Southern blot and PCR of the ROSA26-Iduna allele. Two of these ROSA26-Iduna ES clones were injected into C57BL/6 blastocysts. Resulting chimeras were bred to C57BL/6 mice and offspring were tested for germline transmission. Heterozygous mice for the Rosa26PA-Iduna allele were crossed to Nestin-Cre^(+/+) mice (on C57BL/6 background), which were obtained from the Jackson Laboratory, to obtain ROSA26PA-Iduna^(+/loxP)/Nestin-Cre^(−/+) mice. Nestin-cre/ROSA26PA-Iduna transgenic mice, in which Cre recombinase expression is under the control of the nestin promoter, specifically expresses Iduna in brain. […]

B1: Iduna: novel NMDA-induced cell survival protein, PAR-dependent E3 ligase; 359 amino acids (protein)
chain: MEMAGCGEIDHSINMLPTNKKANESCSNTAPSLTVPECAICLQTCVHPVSLPCKHVFCYLCVKGASWLGKRCALCRQEIPEDFLDKPTLLSPEELKAASRGNGEYAWYYEGRNGWWQYDERTSRELEDAFSKGKKNTEMLIAGFLYVADLENMVQYRRNEHGRRRKIKRDIIDIPKKGVAGLRLDCDTNTVNLARESSADGADSGSAQTGASVQLAVPSSTRPLTSVDGQLTSPVTPSPDAGISLEDSFAHLQLSGDSIAERSHRGEGEEDHESPSSGRVPDTSVEETESDASSDSEDAPVVVAQHSLTQQRPLVPNGNQTVADQSDRSGTDRSVAGGGTMSVNVRSRRPDGQCTVIEV
Q: Which “protection against H2O2 toxicity” value (primary neurons) does the source give for B1 here?
A: protects only against 100 μM H2O2

Q: What about the “cell cycle arrest and cell survival” value (MCF7 cells) of the same molecule?
A: rescues cells from G1 arrest in the cell cycle and promotes cell survival

Q: What about the “reduction of NMDA induced lesions” value [1] of the same molecule?
A: approximately 80%
